Experimental data reported in patent US11324837B2, “Hybrid membrane-coated nanoparticle composites and methods of making and using the same” (Portland State University, priority 2016, dated 2022).

Target: T1, TAMRA-Aβ1-42 (Homo sapiens, UniProt P05067)
T1 construct: fluorophore-labeled Aβ (TAMRA-Aβ1-42)
Test: Fluorescence anisotropy of Aβ binding to AuNP surface
Details: intrinsic, free peptide
From the text: Fluorescence anisotropy also confirmed Aβ binding to AuNP surface. This technique reports on the change in the molecular rotation of the dye attached to the free TAMRA-Aβ1-42 peptide and when it binds to something larger than itself under polarized light. The steady-state anisotropy (r) is derived from the following equation in which r=(IVV−GIVH)/(IVV+2GIVH), where IVV and IVH are the fluorescence intensities, the subscripts indicate the orientation of the excitation and emission polarizer's, and G=IHV/IHH is the wavelength dependent sensitivity of the instrument. In a typical experiment the intrinsic anisotropy of TAMRA-Aβ1-42 (ravg=0.12) increases in the presence of Au-SOA-PC-HT (ravg=0.35) (FIG. 18). The resulting change in anisotropy (Δr=0.23) is due to a large change in the hydrodynamic radius (size) of the small TAMRA-Aβ1-42 when it binds to the much larger Au-SOA-PC-HT nanoparticles. […] Note that Cu^II pre-incubated with TAMRA-Aβ1-42 when added to Au-SOA-PC-HT has the same 0.11 change in anisotropy (FIG. 18). Possible explanations for the additional increase in r include metal ion reassembly of peptides bound to the membrane or bridging interactions between the Au-SOA-PC-HT-TAMRA-Aβ1-42 species. Alternatively, metals could arrange TAMRA-Aβ1-42 within the membrane bilayer to slow its molecular rotation. […]

T1 sequence (P05067 672-713): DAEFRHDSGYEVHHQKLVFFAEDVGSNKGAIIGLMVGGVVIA

**Q.** Which “steady-state anisotropy ravg of TAMRA-Aβ1-42” value does the source give for TAMRA-Aβ1-42: fluorophore-labeled Aβ here?
**A.** The value was 0.12.
